Marks after values point to notes of the source that are not given here.
Tests used:
rabbit ear acne model = experiment: Rabbit ear acne model induced by 2% coal tar; assay type: in vivo, New Zealand rabbits; conditions: n = 10
Source text: The inner side of the right ear of the rabbits was taken as the observation area, the left ear of all rabbits was used as the self-negative control, and 95% alcohol was applied. The inner side of the right ear of the model group and the treatment group were smeared with 2% coal tar (Alfa Aesar China Company, 2% coal tar solution made with 95% alcohol), and evenly applied to the opening of the ear canal on the inner side of the rabbit ear with a sterile cotton swab in a range of about 2 cm×2 cm, once a day, 0.5 mL each time. Then the previous application was wiped with warm water. […] 18 hours after the last coating, the samples were sacrificed, fixed in 10% formaldehyde, embedded in paraffin, and stained with HE for histopathological analysis.
Histological grading standard of the acne model: […], according to histology. Grade 0 means that there are only loose keratinized cells in the infundibulum, without acne forming the “1”; grade 1: the skin on the surface of the rabbit ear is red, or a small amount of dense keratinized material is seen in the infundibulum of the hair follicle, and the infundibulum is not expanded “+”; grade 2: moderately dense keratinized material is seen in the infundibulum of the hair follicle, and it extends to the sebaceous glands, with the proliferation of sebaceous gland ducts, the infundibulum expands by “2+”; grade 3: extensive keratinized material in the hair follicle. Tight keratin embolism in hair follicles causes severe expansion of hair follicles, obvious hyperplasia of sebaceous duct epithelium, skin bulges and scars, and some sebaceous glands degenerate into “3+”.
Histopathological changes were observed under a microscope, and the thickness of 5 different epidermises on a slice was measured with the Biomias99 image analysis system, and the average value was calculated; the area of two hair follicles with the same position and the most complete structure and the diameter of four sebaceous glands were detected, and the average value of each was calculated, and then the data of the left and right external auditory canals of each group were subtracted to obtain the difference in the thickness of the epidermis, the difference in hair follicle area and the diameter of the sebaceous gland in the left and right ears of each rabbit.

[1] = system: hair follicles / hair growth in depilated C57BL/6 mice; experiment: Hair growth in C57BL/6 mice after rosin/paraffin depilation; assay type: in vivo
Procedure: SPF grade C57BL/6 mice were selected and numbered according to their weight. They were randomly divided into compound group 1 (skin applied with 2% R-IMPP solution), compound group 2 (skin applied with 2% PF 06446846 solution), and compound group 3 (skin applied with 2% SBC-115076 solution), compound group 4 (skin applied with 2% SBC-110736 solution), monoclonal antibody group 1 (PCSK9subcutaneous injection monoclonal antibody ab81041, 5 mg/kg·d), monoclonal antibody group 2 (Subcutaneous injection of Evolocumab, 5 mg/kg·d), monoclonal antibody group 3 (subcutaneous injection of Alirocumab, 5 mg/kg·d), PCSK9 RNA interference group-1 (skin applied with 2% PCSK9 small interfering RNA-1 solution), PCSK9 RNA interference Group-2 (skin applied with 2% PCSK9 small interfering RNA-2 solution), PCSK9 RNA interference group-3 (skin applied with 2% PCSK9 small interfering RNA-3 solution), polypeptide group (subcutaneous injection of Abcam company ab32727, 3 mg/kg·d), positive control group (skin applied with 2% minoxidil solution), negative control group (skin applied with 60% ethanol), and model control group (skin applied with 60% ethanol), 10 mice in each group, half male and half female. After the mice were anesthetized with ether, they were coated on the back with a mixture of rosin and paraffin (1:1) after hot melting, and then peeled off after it solidified and hardened. The back of the mouse was cleaned to be hairless and without injuries. The depilation area was about 3 cm×4 cm. From the 2nd day after depilation, the corresponding drugs were applied to the hair removal area, twice a day, 0.5 mL per animal each time, and subcutaneously injected once a week.
From the second day after application, observe the daily color change of the skin on the back of the mice to determine the growth state of the hair follicles and visually observe the hair growth in the depilation area, and score the new hair growth in the depilation area once a day. Five mice in each group were reserved for 40 days of visual observation, and the growth of back hair was recorded.
On the 17th day, five mice in each group were sacrificed by cervical dislocation. The samples were taken from the same part of the back parallel to the spine, fixed with 10% formaldehyde, dehydrated, embedded in paraffin, sectioned, stained with HE, and sealed with neutral gum. Then the histology of hair follicles was observed under light microscope, and morphological staging of hair follicles was performed. According to the international hair cycle scoring method, the hair follicles were scored as follows: 100 points for growth stage VI, 200 points for early regression, 300 points for middle regression, and 400 points for late regression. 50 hair follicles were randomly selected from each mouse, the cycle of the hair follicles in each group was determined, and the average hair cycle score and the percentage of hair follicles in the growth phase VI, early regression, middle regression, and late regression were calculated.

[2] = system: vitiligo guinea pig model caused by hydroquinone depigmentation; experiment: Vitiligo guinea pig model caused by hydroquinone depigmentation: counts of epidermal MC and melanin-granule-containing basal cells; assay type: in vivo; conditions: guinea pig skin after hydroquinone decolorization, drug once a day for 30 days, n = 10, x ± s
Procedure: 10 in each group, Half male and female. Except for the blank control group, the other groups were smeared with 5% hydroquinone in the hair removal area for decolorization, 0.5 mL each time, twice a day, and the animals in the blank control group were smeared with an equal amount of normal saline every day. […] After modeling, the drug was administered in the above manner, once a day for 30 days.
After the observation, the mice were sacrificed, and the skin tissue on the back about 3 cm×3 cm was cut for histopathological examination.
The excised mouse skin tissue was fixed in 10% formalin for 1 hour, washed with running water for 3-4 min, and placed into a phosphate buffer solution (pH 7.4) containing 0.1% dihydroxyphenylalanine, and let stand at 37° C. for 1 hour. Then it was replaced with fresh Dopa reagent and left at 37° C. for 12 hours, rinsed with running water, and fixed with Bouin's solution continuously for 24 h. After the specimens were taken out, it was rinsed with running water for 4 hours, dehydrated, cleared in xylene, embedded in paraffin, deparaffinized to water, and stained with hematoxylin-eosin for contrast. Dehydrated and routinely mounted. After Dopa-oxidase staining, brownish-black staining was MC positive.
The excised mouse skin tissue was fixed in 10% formalin, dehydrated, cleared with xylene, embedded in paraffin, sectioned, deparaffinized to water, washed with distilled water several times, then stained with Lillie reagent, soaked with ferric chloride and potassium ferricyanide mixed solution for 15-20 minutes, then differentiated with 1% acetic acid aqueous solution for several minutes, washed with distilled water several times, then quickly dehydrated with 95% ethanol and absolute ethanol, cleared in xylene, and sealed with neutral gum. If melanin was dark green after Lillie reagent staining, it was positive.

[3] = hair removal area on the back of mice, after hair removal

B1: Evolocumab (antibody, chains of the INN, looked up, V domains shown)
VH: EVQLVQSGAEVKKPGASVKVSCKASGYTLTSYGISWVRQAPGQGLEWMGWVSFYNGNTNYAQKLQGRGTMTTDPSTSTAYMELRSLRSDDTAVYYCARGYGMDVWGQGTTVTVSS
VL: ESALTQPASVSGSPGQSITISCTGTSSDVGGYNSVSWYQQHPGKAPKLMIYEVSNRPSGVSNRFSGSKSGNTASLTISGLQAEDEADYYCNSYTSTSMVFGGGTKLTVL
notes: PCSK9 monoclonal antibody jointly developed by Amgen and Astellas, trade name Repatha
Rabbit ear acne model; rabbit ear epidermis
  Skin thickness: 0.1532 ± 0.0156 mm
Rabbit ear acne model; rabbit ear
  Hair follicle area: 0.1533 ± 0.0562* mm^2
  Sebaceous gland diameter: 0.0432 ± 0.0267 mm
Rabbit ear acne model; right ear, grade 0: only loose keratinized cells in the infundibulum, without acne
  Histological grading of acne: number of animals graded −: 9
Rabbit ear acne model; right ear, grade 1: small amount of dense keratinized material, infundibulum not expanded
  Histological grading of acne: number of animals graded 1+: 1
Rabbit ear acne model; right ear, grade 2: moderately dense keratinized material extending to sebaceous glands, infundibulum expands
  Histological grading of acne: number of animals graded 2+: 0
Rabbit ear acne model; right ear, grade 3: extensive keratinized material, severe expansion of hair follicles
  Histological grading of acne: number of animals graded 3+: 0
[1]; back hair removal area of mice
  Time from hair growth to the same length as the hair in the non-experimental area: 9.89* days
  Time to grow new hair: 5.78* days
  Time to match the length of hair in the non-experimental area: 16.68* days
[1]; hair removal area on the back of mice
  Black skin duration: 10.21* days
[1]; [3]
  Skin black-turning time: 5.23* days
  Skin grayish-black-turning time: 16.83* days
[2]; average number of MCs in each 100 epidermal basal cells
  Epidermal melanocyte count: 46.2 ± 3.8
[2]; average number per 100 epidermal basal cells
  Basal cells containing melanin granules count: 41.2 ± 3.9
